Results as given in patent publication US20150218281A1 (Ablynx, published 2015).

Tests used:
[1] = target: T1, full length human OX40L expressed on CHO cells (human, UniProt P23510 1-183); assay: cell-based or functional assay
T1 sequence: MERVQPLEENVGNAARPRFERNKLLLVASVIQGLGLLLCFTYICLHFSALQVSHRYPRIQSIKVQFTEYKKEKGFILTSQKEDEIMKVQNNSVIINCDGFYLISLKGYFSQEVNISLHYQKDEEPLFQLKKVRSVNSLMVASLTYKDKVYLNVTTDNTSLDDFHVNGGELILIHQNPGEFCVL

[2] = target: T2, biotinylated hOX40L (R&D Systems, biotinylated in house) (human, UniProt P23510 51-183, biotinylated with Sulfo-NHS-LC-Biotin, sites not stated); assay: AlphaScreen, 31 pM biotinylated hOX40L + 80 pM OX40/Fc
T2 construct: same bought protein as m10, biotinylated; also called biotinylated OX40L
T2 sequence: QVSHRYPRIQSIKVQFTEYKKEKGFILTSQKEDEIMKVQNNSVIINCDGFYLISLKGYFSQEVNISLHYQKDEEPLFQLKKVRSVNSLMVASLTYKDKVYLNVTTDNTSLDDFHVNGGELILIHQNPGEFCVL
Experimental: (§1) Next, streptavidin donor beads were added and incubated for an additional 1 hour. Fluorescence was measured by reading plates on the EnVision Multilabel Plate Reader using an excitation wavelength of 680 nm and an emission wavelength of 520 nm.

[3] = target: T1, full length human OX40L expressed on …; assay: competition FACS with hOX40/Fc on CHO-hOX40L
Experimental: The competition FACS assay was performed as described in example 2.

[4] = target: T1, full length human OX40L expressed on …; assay: competition FACS, 3.1 nM hOX40/Fc on hOX40L expressing cells
[5] = target: T3, recombinant human OX40L (extracellular domain, R&D Systems) (human, UniProt P23510 51-183); assay: SPR, second injection after competitor OX40L01B11
T3 construct: also called hOX40L; rec. hOX40L
T3 sequence: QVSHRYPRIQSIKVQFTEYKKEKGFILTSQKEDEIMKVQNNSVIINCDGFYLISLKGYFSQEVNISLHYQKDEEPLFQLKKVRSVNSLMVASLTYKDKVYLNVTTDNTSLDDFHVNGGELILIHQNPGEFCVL
Experimental: (§2) In addition, it was investigated to what extend the 7 anti-OX40L Nanobodies have a different or identical or overlapping epitope. Standard conditions were as described above. […] 1300 RU. A dual injection was performed at 10 μl/min for 2 min, starting with 500 nM of the first Nanobody, followed by 500 nM of the second Nanobody. After 10 min dissociation, regeneration of the surface was performed by injection of 50 mM NaOH for 5-20 sec at 100 μl/min.

[6] = target: T2, biotinylated hOX40L (R&D Systems, …); assay: AlphaScreen, 120 pM biotinylated hOX40L + 0.2 nM hOX40/Fc
Experimental: as §1

[7] = target: T3, recombinant human OX40L (extracellular …); assay: SPR, second injection after competitor OX40L01E10
Experimental: as §2

[8] = target: T4, human Receptor Activator for Nuclear Factor kappa B Ligand (human, UniProt O14788 143-317, limits assumed); assay: competition ELISA on neutravidin captured biotinylated hOX40L
T4 construct: also called hRANKL; RANKL
T4 sequence (looked up): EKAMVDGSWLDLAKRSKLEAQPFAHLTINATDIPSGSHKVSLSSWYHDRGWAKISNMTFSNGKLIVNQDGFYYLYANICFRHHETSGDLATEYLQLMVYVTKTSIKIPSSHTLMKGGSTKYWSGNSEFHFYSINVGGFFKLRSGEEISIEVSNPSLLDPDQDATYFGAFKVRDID
Experimental: (§3) The binding of OX40L blocking Nanobodies to other TNF family members was tested in a competition ELISA.
(§4) Detection was done using sTMB (SDT Reagents, Baesweiler, Germany), the reaction was stopped with 1M HCl and absorbance was determined at 450 nm.

[9] = target: T5, hCD40L (human, UniProt P29965 113-261); assay: as above
T5 sequence (looked up): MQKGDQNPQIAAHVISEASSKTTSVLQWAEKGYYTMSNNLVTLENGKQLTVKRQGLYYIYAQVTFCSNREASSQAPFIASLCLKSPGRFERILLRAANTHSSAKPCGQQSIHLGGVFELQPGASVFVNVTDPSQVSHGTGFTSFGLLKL
Experimental: as §3, §4

[10] = target: hTNF-alpha (human, UniProt P01375 77-233); assay: as above
hTNF-alpha, sequence (P01375 77-233 limits assumed): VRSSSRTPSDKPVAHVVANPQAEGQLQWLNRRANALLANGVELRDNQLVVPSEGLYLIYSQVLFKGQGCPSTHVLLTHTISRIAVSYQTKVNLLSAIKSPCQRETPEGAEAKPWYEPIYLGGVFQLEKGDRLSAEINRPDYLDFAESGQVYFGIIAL
Experimental: as §3, §4

[11] = target: T6, human tumor necrosis factor-related apoptosis inducing ligand (human, UniProt P50591 114-281); assay: as above
T6 construct: also called hTRAIL; TRAIL
T6 sequence (P50591 114-281 limits assumed): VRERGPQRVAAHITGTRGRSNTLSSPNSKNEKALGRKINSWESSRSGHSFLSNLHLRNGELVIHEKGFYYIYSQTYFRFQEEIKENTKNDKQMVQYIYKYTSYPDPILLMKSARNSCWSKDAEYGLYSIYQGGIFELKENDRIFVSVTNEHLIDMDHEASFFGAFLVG
Experimental: as §3, §4

[12] = target: T7, hCD30L (human, UniProt P32971 63-234); assay: as above
T7 sequence (looked up): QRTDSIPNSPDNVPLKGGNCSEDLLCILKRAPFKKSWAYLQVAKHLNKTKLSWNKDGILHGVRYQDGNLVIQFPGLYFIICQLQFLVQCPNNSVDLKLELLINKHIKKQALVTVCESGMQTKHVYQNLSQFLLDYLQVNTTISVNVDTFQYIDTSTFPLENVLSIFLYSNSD
Experimental: as §3, §4

[13] = target: T3, recombinant human OX40L (extracellular …); assay: SPR, second injection after competitor OX40L19D08
Experimental: as §2

[14] = target: T3, recombinant human OX40L (extracellular …); assay: SPR, second injection after competitor OX40L19A07
Experimental: as §2

[15] = target: T3, recombinant human OX40L (extracellular …); assay: SPR, after second injection of buffer HBS-EP+
Experimental: as §2

[16] = target: T1, full length human OX40L expressed on …; assay: FACS binding to CHO cells, anti-c-myc detection
Experimental: (§5) Transfection of CHO K1 with the respective expression plasmid DNA and selection of clones with high expression levels was performed as described in Example 1. Binding of the Nanobodies to the cell surface expressed OX40L was assessed by FACS analysis of cells as described below.
(§6) After washing bound Nanobodies were detected in FACSArray™ using mouse anti-c-myc and PE conjugated goat anti-mouse IgG.

[17] = target: T8, cynomolgus OX40L expressed on CHO cells (cynomolgus monkey, UniProt P23510 1-183 (human entry)); assay: FACS binding to CHO cells, anti-c-myc detection
T8 construct: also called cynoOX40L; CHO-cynoOX40L
T8 chain: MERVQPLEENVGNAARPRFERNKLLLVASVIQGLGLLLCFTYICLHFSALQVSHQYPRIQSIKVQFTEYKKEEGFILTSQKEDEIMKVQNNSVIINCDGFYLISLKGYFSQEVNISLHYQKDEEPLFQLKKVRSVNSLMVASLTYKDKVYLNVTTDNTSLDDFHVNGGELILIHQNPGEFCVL
Experimental: as §5, §6

[18] = target: T3, recombinant human OX40L (extracellular …); assay: SPR, second injection after competitor OX40L01E07
Experimental: as §2

[19] = target: T3, recombinant human OX40L (extracellular …); assay: SPR, second injection after competitor OX40L15B07
Experimental: as §2

[20] = target: T3, recombinant human OX40L (extracellular …); assay: SPR, second injection after competitor OX40L18E09
Experimental: as §2

B1: OX40L01E10 (VHH)
VHH: EVQLVESGGGLVQAGDSLRLSCAASGLTFSSFAMGWFRQAPGKEREFVAAISRSGYGTSEADSVRDRFIISRDNAKNTVTLHLSRLKPEDTAVYYCAAEHTLGRPSRSQINYLYWGQGTQVTVSS
notes: monovalent Nanobody from E. coli; not shown: C-terminal c-myc and His6 tag
**Q.** B1 was tested. Which “IC50, IL4 production, T-cell activation assay, donor 1” value [1] did it give?
**A.** 110 nM

**Q.** And the “IC50, IL4 production, T-cell activation assay, donor 2” value [1]?
**A.** 159 nM

**Q.** And the “IC50, IL4 production, T-cell activation assay, donor 3” value [1]?
**A.** 27 nM

**Q.** What about the “IC50, IL4 production, T-cell activation assay, donor 4” value [1] of the same binder?
**A.** 12 nM

**Q.** And the IC50 [2]?
**A.** 0.264 nM

**Q.** And the IC50 [3]?
**A.** 12 nM

**Q.** What about the IC50 [4] of the same binder?
**A.** 9.11 nM

**Q.** And the “Binding Level sample 2 (RU)” value [5]?
**A.** 342 RU

**Q.** What about the “Binding Level sample 2 - sample 1 (RU)” value [5] of the same binder?
**A.** -7 RU

**Q.** What about the IC50 [6] of the same binder?
**A.** 0.49 nM

**Q.** And the “Binding Level sample 2 (RU)” value [7]?
**A.** 215 RU

**Q.** And the “Binding Level sample 2 - sample 1 (RU)” value [7]?
**A.** 8 RU

**Q.** Does B1 bind [8]?
**A.** no binding (tested: starting from 100 fold molar excess)

**Q.** Does B1 bind [9]?
**A.** no binding (tested: starting from 100 fold molar excess)

**Q.** Does B1 bind [10]?
**A.** no binding (tested: starting from 100 fold molar excess)

**Q.** Does B1 bind [11]?
**A.** no binding (tested: starting from 100 fold molar excess)

**Q.** Does B1 bind [12]?
**A.** no binding (tested: starting from 100 fold molar excess)

**Q.** What about the “Binding Level sample 2 (RU)” value [13] of the same binder?
**A.** 202 RU

**Q.** And the “Binding Level sample 2 - sample 1 (RU)” value [13]?
**A.** -13 RU

**Q.** What about the “Binding Level sample 2 (RU)” value [14] of the same binder?
**A.** 183 RU

**Q.** And the “Binding Level sample 2 - sample 1 (RU)” value [14]?
**A.** 17 RU

**Q.** And the “Binding Level sample 2 (RU)” value [15]?
**A.** 185 RU

**Q.** And the “Binding Level sample 2 - sample 1 (RU)” value [15]?
**A.** -26 RU

**Q.** And the EC50 [16]?
**A.** 3.77 nM

**Q.** And the EC50 [17]?
**A.** 5.54 nM

**Q.** And the “Binding Level sample 2 (RU)” value [18]?
**A.** 193 RU

**Q.** And the “Binding Level sample 2 - sample 1 (RU)” value [18]?
**A.** 5 RU

**Q.** And the “Binding Level sample 2 (RU)” value [19]?
**A.** 190 RU

**Q.** What about the “Binding Level sample 2 - sample 1 (RU)” value [19] of the same binder?
**A.** 5 RU

**Q.** What about the “Binding Level sample 2 (RU)” value [20] of the same binder?
**A.** 176 RU

**Q.** And the “Binding Level sample 2 - sample 1 (RU)” value [20]?
**A.** -2 RU

B2: OX40L18E09 (VHH)
VHH: EVQLVESGGGLVQAGGSLRLSCAASRNILSLNTMGWYRHAPGKPRELVARISSNSKTDYADSVKGRFTISRDNAKNTVLLQMNSLKPEDTGVYYCNLNVWRTSSDYWGQGTQVTVSS
notes: as for B1
**Q.** How did the “IC50, IL4 production, T-cell activation assay, donor 1” value [1] turn out when B2 was run?
**A.** 36 nM

**Q.** What about the “IC50, IL4 production, T-cell activation assay, donor 2” value [1] of the same binder?
**A.** 45 nM

**Q.** What about the “IC50, IL4 production, T-cell activation assay, donor 3” value [1] of the same binder?
**A.** 36 nM

**Q.** What about the “IC50, IL4 production, T-cell activation assay, donor 4” value [1] of the same binder?
**A.** 49 nM

**Q.** What about the IC50 [2] of the same binder?
**A.** 0.041 nM

**Q.** And the IC50 [3]?
**A.** 2 nM

**Q.** And the IC50 [4]?
**A.** 1.73 nM

**Q.** What about the “Binding Level sample 2 (RU)” value [5] of the same binder?
**A.** 312 RU

**Q.** What about the “Binding Level sample 2 - sample 1 (RU)” value [5] of the same binder?
**A.** -7 RU

**Q.** And the IC50 [6]?
**A.** 0.112 nM

**Q.** And the “Binding Level sample 2 (RU)” value [7]?
**A.** 245 RU

**Q.** What about the “Binding Level sample 2 - sample 1 (RU)” value [7] of the same binder?
**A.** 21 RU

**Q.** Does B2 bind [8]?
**A.** no binding (tested: starting from 100 fold molar excess)

**Q.** Does B2 bind [9]?
**A.** no binding (tested: starting from 100 fold molar excess)

**Q.** Does B2 bind [10]?
**A.** no binding (tested: starting from 100 fold molar excess)

**Q.** Does B2 bind [11]?
**A.** no binding (tested: starting from 100 fold molar excess)

**Q.** Does B2 bind [12]?
**A.** no binding (tested: starting from 100 fold molar excess)

**Q.** What about the “Binding Level sample 2 (RU)” value [13] of the same binder?
**A.** 225 RU

**Q.** And the “Binding Level sample 2 - sample 1 (RU)” value [13]?
**A.** -3 RU

**Q.** And the “Binding Level sample 2 (RU)” value [14]?
**A.** 206 RU

**Q.** What about the “Binding Level sample 2 - sample 1 (RU)” value [14] of the same binder?
**A.** 30 RU

**Q.** What about the “Binding Level sample 2 (RU)” value [15] of the same binder?
**A.** 168 RU

**Q.** What about the “Binding Level sample 2 - sample 1 (RU)” value [15] of the same binder?
**A.** -16 RU

**Q.** And the EC50 [16]?
**A.** 2.26 nM

**Q.** And the EC50 [17]?
**A.** 3.8 nM

**Q.** What about the “Binding Level sample 2 (RU)” value [18] of the same binder?
**A.** 200 RU

**Q.** And the “Binding Level sample 2 - sample 1 (RU)” value [18]?
**A.** 15 RU

**Q.** What about the “Binding Level sample 2 (RU)” value [19] of the same binder?
**A.** 207 RU

**Q.** What about the “Binding Level sample 2 - sample 1 (RU)” value [19] of the same binder?
**A.** 11 RU

**Q.** What about the “Binding Level sample 2 (RU)” value [20] of the same binder?
**A.** 195 RU

**Q.** What about the “Binding Level sample 2 - sample 1 (RU)” value [20] of the same binder?
**A.** 5 RU
